This is an account of results in paper doi:10.1101/2024.05.02.592161.

This assay deals with Mx_pmut, pore-engineered Myxococcus xanthus encapsulin shell protein (Myxococcus xanthus) (UniProt Q1D6H4). The assay is described as follows: cryo-EM structure; purified Mx_pmut co-expressed with SNAP-tag-TP cargo (T=3/T=4 sample), 4.1 mg/mL, 150 mM NaCl, 25 mM Tris pH 8.0; icosahedral symmetry imposed.

Take “SNAP-tag carrying an Mx-targeting peptide (TP) at its C-terminus”: the copies of cargo in a T=3 shell turned out to be 180 copies and the copies of cargo in a T=4 shell was 240 copies.
